Assay [1] has as its target T1, human Siglec-7 expressed on human cells (primary monocytes, dendritic cells, macrophages, NK cells, … (human, UniProt Q9Y286 19-467)).
T1 construct: Endogenous receptor on cells; also called Siglec-7 receptor
Briefly: FACS, human primary monocytes, 10 ug/ml mAb. For orientation: In flow cytometry, cells or beads pass a laser one at a time.

The target of the next assay is T2, V44A (human, UniProt Q9Y286).
T2 construct: clone of the siglec-7 mutation library; also called Siglec-7 V44A
Briefly: flow cytometry on HEK-293T cells expressing the mutant; mean % of wild-type signal (range of duplicates). The protocol:
(§1) Shotgun mutagenesis epitope mapping of anti-siglec-7 antibodies was performed using an alanine-scanning library for the siglec-7 protein. […] Each of residues 19 to 353 was mutated, representing the siglec-7 extracellular domain, most to alanine, while alanine codons were mutated to serine. In total, 335 siglec-7 mutant expression constructs were generated, sequences confirmed, and arrayed into a 384-well plate, one mutant per well.
(§2) Cells were then incubated with MAbs diluted in 10% o normal goat serum (NGS) (Sigma-Aldrich, St. Louis, Mo.). Prior to library screening, primary MAb concentrations were determined using an independent immunofluorescence titration curve against cells expressing wild-type siglec-7 to ensure that signals were within the linear range of detection. MAbs were detected using 3.75 μg/ml AlexaFluor488-conjugated secondary antibody (Jackson immunoResearch Laboratories, Westgrove, Pa.) in 10% NGS. Cells were washed twice with PBS−/− and resuspended in Cellstripper (Cellgro, Manassas, Va.) with 0.1% BSA (Sigma-Aldrich, St. Louis, Mo.). Mean cellular fluorescence was detected using the Intellicyt high throughput flow cytometer (HTFC, Intellicyt, Albuquerque, N. Mex.). MAb reactivities against each mutant clone were calculated relative to wild-type siglec-7 protein reactivity by subtracting the signal from mock-transfected controls, and normalizing to the signal from wild-type siglec-7-transfected controls.

The target in the next assay is T3, M185A (human, UniProt Q9Y286).
T3 construct: clone of the siglec-7 mutation library; also called Siglec-7 M185A
The description is as above. On the procedure: as §1, §2

Another assay deals with T4, Y50A (human, UniProt Q9Y286).
T4 construct: clone of the siglec-7 mutation library; also called Siglec-7 Y50A
Described as above. The protocol:
as §1, §2

The target of a further assay is T5, N81A (human, UniProt Q9Y286).
T5 construct: clone of the siglec-7 mutation library; also called Siglec-7 N81A
The assay is described as above. The protocol:
as §1, §2

In the next assay the target is T6, W74A (human, UniProt Q9Y286).
T6 construct: clone of the siglec-7 mutation library; also called Siglec-7 W74A
Described as above. On the procedure: as §1, §2

A further assay concerns the target T7, R45A (human, UniProt Q9Y286).
T7 construct: clone of the siglec-7 mutation library; also called Siglec-7 R45A
The description is as above. On the procedure: as §1, §2

A further assay addresses T8, T103A (human, UniProt Q9Y286).
T8 construct: clone of the siglec-7 mutation library; also called Siglec-7 T103A
Described as above. The protocol: as §1, §2

The target of a further assay is T9, K104A (human, UniProt Q9Y286).
T9 construct: clone of the siglec-7 mutation library; also called Siglec-7 K104A
The assay is described as above. On the procedure: as §1, §2

The target in another assay is T10, S47A (human, UniProt Q9Y286).
T10 construct: clone of the siglec-7 mutation library; also called Siglec-7 S47A
The description is as above. The protocol:
as §1, §2

The target in another assay is T11, M30A (human, UniProt Q9Y286).
T11 construct: clone of the siglec-7 mutation library; also called Siglec-7 M30A
Described as above. The protocol:
as §1, §2

In the next assay the target is T12, I72A (human, UniProt Q9Y286).
T12 construct: clone of the siglec-7 mutation library; also called Siglec-7 I72A
The description is as above. The protocol:
as §1, §2

The next assay addresses T13, F48A (human, UniProt Q9Y286).
T13 construct: clone of the siglec-7 mutation library; also called Siglec-7 F48A
Described as above. The protocol: as §1, §2

In assay [2] the target is T1, human Siglec-7 expressed on human cells …. Briefly: cell-based or functional assay.
Assay [3] has the same target. The experiment in a line: FACS, human primary dendritic cells, 10 ug/ml mAb.

T1 sequence (Q9Y286 19-467): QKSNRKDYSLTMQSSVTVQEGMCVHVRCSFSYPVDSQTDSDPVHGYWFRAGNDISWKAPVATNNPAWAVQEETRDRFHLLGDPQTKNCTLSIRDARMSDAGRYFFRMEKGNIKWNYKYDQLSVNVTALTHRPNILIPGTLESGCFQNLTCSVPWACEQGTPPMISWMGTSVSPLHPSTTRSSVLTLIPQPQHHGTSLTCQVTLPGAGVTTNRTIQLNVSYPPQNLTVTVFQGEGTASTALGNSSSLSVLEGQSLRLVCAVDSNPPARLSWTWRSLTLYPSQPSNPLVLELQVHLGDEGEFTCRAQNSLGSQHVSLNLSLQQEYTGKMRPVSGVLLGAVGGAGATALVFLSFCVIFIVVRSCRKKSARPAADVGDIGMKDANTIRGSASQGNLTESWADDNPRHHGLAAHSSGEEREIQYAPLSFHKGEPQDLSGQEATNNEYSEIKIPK
T4 sequence (Q9Y286 19-467 Y50A limits assumed): as the sequence (Q9Y286 19-467) above, with Y32A counted along it
T10 sequence (Q9Y286 19-467 S47A limits assumed): as the sequence (Q9Y286 19-467) above, with S29A counted along it
T12 sequence (Q9Y286 19-467 I72A limits assumed): as the sequence (Q9Y286 19-467) above, with I54A counted along it
T3 sequence (Q9Y286 19-467 M185A limits assumed): as the sequence (Q9Y286 19-467) above, with M167A counted along it
T9 sequence (Q9Y286 19-467 K104A limits assumed): as the sequence (Q9Y286 19-467) above, with K86A counted along it
T8 sequence (Q9Y286 19-467 T103A limits assumed): as the sequence (Q9Y286 19-467) above, with T85A counted along it
T13 sequence (Q9Y286 19-467 F48A limits assumed): as the sequence (Q9Y286 19-467) above, with F30A counted along it
T2 sequence (Q9Y286 19-467 V44A limits assumed): as the sequence (Q9Y286 19-467) above, with V26A counted along it
T5 sequence (Q9Y286 19-467 N81A limits assumed): as the sequence (Q9Y286 19-467) above, with N63A counted along it
T6 sequence (Q9Y286 19-467 W74A limits assumed): as the sequence (Q9Y286 19-467) above, with W56A counted along it
T11 sequence (Q9Y286 19-467 M30A limits assumed): as the sequence (Q9Y286 19-467) above, with M12A counted along it
T7 sequence (Q9Y286 19-467 R45A limits assumed): as the sequence (Q9Y286 19-467) above, with R27A counted along it

B1: anti-Siglec-7 antibody 10B5 (antibody, V domains shown)
VH: QVHLQQSGPELVKPGASVKISCKASGYAFTNCWMNWVRQRPGKGLDWIGRIFPGNGHTNYSGKFKDKATLTEDKSSSTAYMQLSSLTSEDSAVYFCARDYSDYYFDYWGQGTTLTVSS
VL: DVQMTQTTSSLSASLGDRVTISCRASQDINTYLNWYQQKPDGTVKLLIYYTSRLHSGVPSRFSGSGSGTDYSLTISNLEQEDIATYFCQQGNTLPWTFGGGTKLEIK
notes: that light chain holds several Z and differs in its CDRs from S7-10B5.1 / 10B5L1; also called S7-10B5; mAb S7-10B5
Consider B1, for which the “% Positive” value in assay [1] turned out to be 99.2%; in assay [3], 99.6%. The MFI in assay [1] was 417; in [3] it was 3230. The “Binding Reactivity (% WT)” value was found to be 93.9 % WT in the assay with V44A; 29.1 % WT in the assay with M185A; 108 % WT in the assay with Y50A; 153 % WT with N81A; 101 % WT with W74A; 37.3 % WT in the assay with R45A. For the same molecule, the “Binding Reactivity (% WT)” value with T103A worked out at 96.3 % WT; with K104A it was 13.6 % WT; in the assay with S47A, 81.7 % WT; with M30A, 89.9 % WT; with I72A, 130 % WT; with F48A, 159 % WT. The “Percent Siglec-7 Surface Expression, Macrophages” value in assay [2] turned out to be 3.2%. The “Percent Siglec-7 Surface Expression, Microglia” value in [2] came out at 5.5%. For the same molecule, in [2], the “Percent Siglec-7 Surface Expression, NK cells” value came to 25.5%.
